Stoichiometry N data for three substances are collected here from article PMC4555872.

Assay [1] addresses CZA97.012 gp140 (uncleaved, foldon, His-tagged) (HIV-1 (subtype C, CZA97.012) | not stated). The experiment in a line: SEC. For orientation: Size exclusion chromatography separates by hydrodynamic size, large species first.
For assay [2], the target named is BG505 SOSIP.664 gp140 trimer (cleaved) (HIV-1 (BG505)). As to the kind of experiment: negative stain electron microscopy.
The target in assay [3] is BG505 WT.SEKS gp140 (uncleaved) (HIV-1 (BG505)). As to the kind of experiment: negative stain electron microscopy.

As for “CZA97.012 gp140 (uncleaved, foldon, His-tagged)”, the stoichiometry N in assay [1] amounted to 3. In the case of “BG505 SOSIP.664 gp140 trimer (cleaved) (complex)”, in assay [2], the stoichiometry N came to 3. BG505 WT.SEKS gp140 (uncleaved): the stoichiometry N in assay [3] is 3.

Usually stoichiometry N stands for the number of molecules, sites or subunits per partner or assembly.
